Assay results reported in PMC10425842.

What was measured:
[1] = molecular target: UBR5^ΔSBB2 (UBR5 mutant with an SBB2 domain deletion) (human) (UniProt O95071); assay: cryo-EM 2D classification
[2] = molecular target: UBR5^ΔSBB2 (UBR5 mutant with an SBB2 domain deletion) (human) (UniProt O95071); assay: mass photometry

With “UBR5^ΔSBB2 (UBR5 mutant with an SBB2 domain deletion) (from UniProt O95071 1-2799) (enzyme)” as the substance, how does the stoichiometry N [1] read?
The stoichiometry N was 2.

And the stoichiometry N [2]?
Its stoichiometry N is 2.
